Columns and labels:
[1] = target: T1, DMa-FlAsH (row MMa-FlAsH) (Homo sapiens, UniProt P21549, R118A/F238S/F240S/INS254CCPGCC); experiment: CD signal at […] nm, tight-binding quadratic fit; details: 10 μM apoenzyme, 24 h incubation, PLP 1–300 μM
T1 construct: gene AGXT; full length with CCPGCC FlAsH motif inserted in a surface loop, expressed in E. coli BL21(DE3), purified on HisPrep FF (His-tagged)
T1 sequence (P21549 with tags, fused parts or gaps R118A/F238S/F240S/INS254CCPGCC): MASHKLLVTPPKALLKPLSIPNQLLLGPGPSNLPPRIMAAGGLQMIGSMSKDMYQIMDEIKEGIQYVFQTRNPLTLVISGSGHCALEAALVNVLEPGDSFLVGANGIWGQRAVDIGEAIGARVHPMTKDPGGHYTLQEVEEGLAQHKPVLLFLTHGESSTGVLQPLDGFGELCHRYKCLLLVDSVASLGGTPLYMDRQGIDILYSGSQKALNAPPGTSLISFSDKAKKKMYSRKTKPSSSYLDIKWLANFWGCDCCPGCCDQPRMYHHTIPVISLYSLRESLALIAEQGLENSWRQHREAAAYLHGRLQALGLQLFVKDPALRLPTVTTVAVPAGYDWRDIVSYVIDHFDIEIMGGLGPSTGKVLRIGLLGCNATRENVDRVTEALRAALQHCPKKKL

AGT (DMa, major allele) [2] = target: T2, AGT (DMa, major allele) (Homo sapiens, UniProt P21549); experiment: not described here for DMa; type: binding; details: read-out: KD(PLP)
T2 construct: gene AGXT; full length, expressed in E. coli BL21(DE3), purified on HisPrep FF (His-tagged, removal not mentioned)
T2 sequence (P21549 1-392): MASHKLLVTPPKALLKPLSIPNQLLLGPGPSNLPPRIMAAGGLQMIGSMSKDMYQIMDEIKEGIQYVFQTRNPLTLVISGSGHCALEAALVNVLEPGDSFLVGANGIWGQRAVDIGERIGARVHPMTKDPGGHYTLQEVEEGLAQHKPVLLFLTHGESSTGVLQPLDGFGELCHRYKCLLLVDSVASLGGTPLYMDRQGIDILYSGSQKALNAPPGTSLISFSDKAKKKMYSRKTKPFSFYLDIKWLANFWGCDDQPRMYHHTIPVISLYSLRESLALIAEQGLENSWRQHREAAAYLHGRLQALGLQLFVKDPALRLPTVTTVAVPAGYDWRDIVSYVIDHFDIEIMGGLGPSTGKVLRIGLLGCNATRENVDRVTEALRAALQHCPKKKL
From the text: not described here for DMa on AGT (DMa, major allele; rows DMi, MMa, MMi)

[3] = target: T3, DMa-FlAsH (row MMa-FlAsH) (Homo sapiens, UniProt P21549, INS254CCPGCC); experiment: intrinsic fluorescence quenching of apoenzyme, tight-binding quadratic fit; details: 0.1 μM apoenzyme, 24 h incubation, PLP 0.01–10 μM
T3 construct: gene AGXT; full length with CCPGCC FlAsH motif inserted in a surface loop, expressed in E. coli BL21(DE3), purified on HisPrep FF (His-tagged)
T3 sequence (P21549 with tags, fused parts or gaps INS254CCPGCC): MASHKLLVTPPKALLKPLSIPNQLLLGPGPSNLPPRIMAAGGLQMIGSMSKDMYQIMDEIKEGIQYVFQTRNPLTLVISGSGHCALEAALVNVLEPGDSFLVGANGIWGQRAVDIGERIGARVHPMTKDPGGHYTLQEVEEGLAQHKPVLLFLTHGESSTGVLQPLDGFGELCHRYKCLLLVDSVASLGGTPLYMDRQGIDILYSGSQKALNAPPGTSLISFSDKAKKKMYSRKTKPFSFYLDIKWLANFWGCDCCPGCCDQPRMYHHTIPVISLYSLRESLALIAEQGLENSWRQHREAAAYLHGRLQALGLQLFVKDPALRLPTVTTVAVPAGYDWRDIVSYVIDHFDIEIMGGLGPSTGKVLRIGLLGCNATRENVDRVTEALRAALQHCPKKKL
Experimental: intrinsic fluorescence quenching of apoenzyme, tight-binding quadratic fit on DMa-FlAsH (row MMa-FlAsH) | The KD(PLP) of DMa-FlAsH was calculated by measuring the intrinsic fluorescence quenching

AGT (DMa, major allele) [4] = target: T4, AGT (DMa, major allele) (Homo sapiens, UniProt P21549, F238S/F240S/R118A); experiment: CD signal at […] nm, tight-binding quadratic fit; details: read-out: KD(PLP)
T4 construct: gene AGXT; full length, expressed in E. coli BL21(DE3), purified on HisPrep FF (His-tagged, removal not mentioned)
T4 sequence (P21549 1-392 R118A/F238S/F240S): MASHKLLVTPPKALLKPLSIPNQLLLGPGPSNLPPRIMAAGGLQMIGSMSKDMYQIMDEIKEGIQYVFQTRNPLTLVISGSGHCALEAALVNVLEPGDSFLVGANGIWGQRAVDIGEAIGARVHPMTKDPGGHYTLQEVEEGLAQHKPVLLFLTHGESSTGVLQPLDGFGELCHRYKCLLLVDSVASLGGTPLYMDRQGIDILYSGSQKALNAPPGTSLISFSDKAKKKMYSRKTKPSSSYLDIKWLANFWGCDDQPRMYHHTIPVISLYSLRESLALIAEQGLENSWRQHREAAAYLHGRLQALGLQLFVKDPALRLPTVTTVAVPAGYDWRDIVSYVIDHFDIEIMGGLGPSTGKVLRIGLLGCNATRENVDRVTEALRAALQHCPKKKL

AGT (DMa, major allele) [5] = target: T5, AGT (DMa, major allele) (Homo sapiens, UniProt P21549, F238S/F240S/I340M/P11L/R118A); experiment: not described in detail here for MMi; type: binding; details: read-out: KD(PLP)
T5 construct: gene AGXT; full length, expressed in E. coli BL21(DE3), purified on HisPrep FF (His-tagged, removal not mentioned)
T5 sequence (P21549 1-392 P11L/R118A/F238S/F240S/I340M): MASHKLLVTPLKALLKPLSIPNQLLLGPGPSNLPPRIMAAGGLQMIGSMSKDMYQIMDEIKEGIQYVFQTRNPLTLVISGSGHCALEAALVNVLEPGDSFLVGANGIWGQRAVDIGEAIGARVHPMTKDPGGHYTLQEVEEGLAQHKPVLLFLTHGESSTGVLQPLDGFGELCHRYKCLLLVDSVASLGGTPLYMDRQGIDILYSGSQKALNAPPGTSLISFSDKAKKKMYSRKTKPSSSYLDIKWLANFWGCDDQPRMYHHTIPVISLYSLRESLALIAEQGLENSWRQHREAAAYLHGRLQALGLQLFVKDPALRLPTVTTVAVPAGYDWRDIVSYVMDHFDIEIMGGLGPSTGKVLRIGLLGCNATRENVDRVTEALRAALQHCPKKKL
From the text: not described in detail here for MMi on AGT (DMa, major allele; rows DMi, MMa, MMi)

AGT (DMa, major allele) [6] = target: T6, AGT (DMa, major allele) (Homo sapiens, UniProt P21549, I340M/P11L); experiment: not described here for DMi; type: binding; details: read-out: KD(PLP)
T6 construct: gene AGXT; full length, expressed in E. coli BL21(DE3), purified on HisPrep FF (His-tagged, removal not mentioned)
T6 sequence (P21549 1-392 P11L/I340M): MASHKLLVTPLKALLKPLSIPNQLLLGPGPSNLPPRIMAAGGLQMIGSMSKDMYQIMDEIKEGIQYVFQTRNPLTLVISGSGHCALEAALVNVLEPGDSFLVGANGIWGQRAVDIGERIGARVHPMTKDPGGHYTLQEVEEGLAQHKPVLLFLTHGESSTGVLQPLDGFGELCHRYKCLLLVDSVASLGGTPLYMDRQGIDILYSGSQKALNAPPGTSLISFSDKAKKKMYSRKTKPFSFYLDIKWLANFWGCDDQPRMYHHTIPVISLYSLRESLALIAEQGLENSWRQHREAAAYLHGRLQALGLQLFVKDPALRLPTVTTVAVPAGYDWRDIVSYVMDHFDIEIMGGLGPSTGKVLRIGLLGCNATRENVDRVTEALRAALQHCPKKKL
From the text: not described here for DMi on AGT (DMa, major allele; rows DMi, MMa, MMi)

[7] = target: artificial monomeric form of alanine:glyoxylate aminotransferase on the major allele (MMa), R118A/F238S/F240S, recombinant purified (human) (UniProt P21549); experiment: SEC; apo-form; Superdex 200 10/300 GL, room temperature, KP 0.1 M, pH 7.4; samples at different concentrations incubated overnight at 25 °C; percent dimer from peak areas fitted; dimer to monomers
[8] = target: artificial monomeric form of alanine:glyoxylate aminotransferase on the major allele (MMa), R118A/F238S/F240S, recombinant purified (human) (UniProt P21549); experiment: SEC; holo-form, in the presence of saturating PLP; Superdex 200 10/300 GL, room temperature, KP 0.1 M, pH 7.4; samples at different concentrations incubated overnight at 25 °C; percent dimer from peak areas fitted; dimer to monomers
[9] = target: the molecule itself; experiment: as above
[10] = target: the molecule itself; experiment: SEC; apo-form; Superdex 200 10/300 GL, room temperature, KP 0.1 M, pH 7.4; samples at different concentrations incubated overnight at 25 °C; percent dimer from peak areas fitted; dimer to monomers

Q: Which results are given for Cc1ncc(COP(=O)(O)O)c(C=O)c1O [PLP]?
A: Kd [1]: 7200 ± 1100 nM; Kd (AGT (DMa, major allele) [2]): 270 ± 30 nM; Kd [3]: 250 ± 30 nM; Kd (AGT (DMa, major allele) [4]): 3200 ± 600 nM; Kd (AGT (DMa, major allele) [5]): 4400 ± 500 nM; Kd (AGT (DMa, major allele) [6]): 260 ± 20 nM

Q: With “artificial monomeric form of alanine:glyoxylate aminotransferase on the major allele (MMa), R118A/F238S/F240S, recombinant purified (from UniProt P21549 1-392) (enzyme)” as the molecule, how does the Kd [7] read?
A: Its Kd is 4100 nM.

Q: What about the Kd [8] of the same molecule?
A: Its Kd is 1500 nM.

B1: alanine:glyoxylate aminotransferase, native dimeric form encoded by the major allele (DMa), recombinant purified (enzyme, human, UniProt P21549 1-392, looked up)
chain: MASHKLLVTPPKALLKPLSIPNQLLLGPGPSNLPPRIMAAGGLQMIGSMSKDMYQIMDEIKEGIQYVFQTRNPLTLVISGSGHCALEAALVNVLEPGDSFLVGANGIWGQRAVDIGERIGARVHPMTKDPGGHYTLQEVEEGLAQHKPVLLFLTHGESSTGVLQPLDGFGELCHRYKCLLLVDSVASLGGTPLYMDRQGIDILYSGSQKALNAPPGTSLISFSDKAKKKMYSRKTKPFSFYLDIKWLANFWGCDDQPRMYHHTIPVISLYSLRESLALIAEQGLENSWRQHREAAAYLHGRLQALGLQLFVKDPALRLPTVTTVAVPAGYDWRDIVSYVIDHFDIEIMGGLGPSTGKVLRIGLLGCNATRENVDRVTEALRAALQHCPKKKL
notes: human alanine:glyoxylate aminotransferase (AGT), major allele (Pro11, Ile340); bacterial construct pAGT-Ma; Homodimer in its native state; Used as apo-form and as holo-form (with PLP); also called AGT; AGT-Ma; source: E. coli BL21(DE3), purified (HisPrep FF)
Q: How did the Kd [9] turn out when B1 was run?
A: Its Kd is under 300 nM.

Q: What about the Kd [10] of the same molecule?
A: Its Kd is under 300 nM.

B2: alanine:glyoxylate aminotransferase, native dimeric form encoded by the minor allele (DMi), recombinant purified (enzyme, human, UniProt P21549 1-392, looked up)
chain: MASHKLLVTPLKALLKPLSIPNQLLLGPGPSNLPPRIMAAGGLQMIGSMSKDMYQIMDEIKEGIQYVFQTRNPLTLVISGSGHCALEAALVNVLEPGDSFLVGANGIWGQRAVDIGERIGARVHPMTKDPGGHYTLQEVEEGLAQHKPVLLFLTHGESSTGVLQPLDGFGELCHRYKCLLLVDSVASLGGTPLYMDRQGIDILYSGSQKALNAPPGTSLISFSDKAKKKMYSRKTKPFSFYLDIKWLANFWGCDDQPRMYHHTIPVISLYSLRESLALIAEQGLENSWRQHREAAAYLHGRLQALGLQLFVKDPALRLPTVTTVAVPAGYDWRDIVSYVMDHFDIEIMGGLGPSTGKVLRIGLLGCNATRENVDRVTEALRAALQHCPKKKL
notes: human alanine:glyoxylate aminotransferase (AGT), minor allele (Pro11Leu, Ile340Met); bacterial construct pAGT-Mi; Homodimer in its native state; Used as apo-form and as holo-form (with PLP); also called AGT-Mi; source: E. coli BL21(DE3), purified (HisPrep FF)
Q: With B2 as the molecule, how does the Kd [9] read?
A: Its Kd is under 300 nM.

Q: What about the Kd [10] of the same molecule?
A: Its Kd is under 300 nM.

B3: artificial monomeric form of alanine:glyoxylate aminotransferase on the minor allele (MMi), R118A/F238S/F240S, recombinant purified (enzyme, human, UniProt P21549 1-392, looked up)
chain: MASHKLLVTPLKALLKPLSIPNQLLLGPGPSNLPPRIMAAGGLQMIGSMSKDMYQIMDEIKEGIQYVFQTRNPLTLVISGSGHCALEAALVNVLEPGDSFLVGANGIWGQRAVDIGEAIGARVHPMTKDPGGHYTLQEVEEGLAQHKPVLLFLTHGESSTGVLQPLDGFGELCHRYKCLLLVDSVASLGGTPLYMDRQGIDILYSGSQKALNAPPGTSLISFSDKAKKKMYSRKTKPSSSYLDIKWLANFWGCDDQPRMYHHTIPVISLYSLRESLALIAEQGLENSWRQHREAAAYLHGRLQALGLQLFVKDPALRLPTVTTVAVPAGYDWRDIVSYVMDHFDIEIMGGLGPSTGKVLRIGLLGCNATRENVDRVTEALRAALQHCPKKKL
notes: human alanine:glyoxylate aminotransferase (AGT), minor allele (Pro11Leu, Ile340Met), with the interfacial mutations R118A/F238S/F240S on pAGT-Mi; Used as apo-form and as holo-form (with PLP); source: E. coli BL21(DE3), purified (HisPrep FF)
Q: Which Kd [9] does the source give for B3 here?
A: The Kd was 9400 ± 500 nM.

Q: And the Kd [10]?
A: The Kd was 80000 ± 1000 nM.
